Source: article PMC12065890

What was measured:
[1] = target: Amh C-terminal domain (SPR protein) (zebrafish); experiment: SPR
[2] = target: full-length Amh (SPR protein) (zebrafish); experiment: SPR

## Bmpr2a domain protein (protein kinase domain of Bmpr2a, SPR protein) (domain or fragment)
[1]
  Kd: 1390 nM
[2]
  Kd: 116 nM
